Data: US20240245796A1 (PROFOUNDBIO US, published 2024)

Assays:
[1] = biological target: T1, rat FOLR1 extracellular domain linked to His tag (rat); experiment: BLI, Ag 31.3 nM; * = below range of quantification
T1 construct: extracellular domain; Antigen in solution in BLI; also called Rat-Ag

[2] = biological target: T2, human FOLR3 extracellular domain linked to His tag (human, UniProt P41439 23-245, limits assumed); experiment: BLI, Ag 31.3 nM; * = below range of quantification
T2 construct: extracellular domain; Antigen in solution in BLI; also called Hu-FRg; not shown: His tag

[3] = biological target: T3, human FOLR2 extracellular domain linked to His tag (human, UniProt P14207 17-230, limits assumed); experiment: BLI, Ag 31.3 nM; * = below range of quantification
T3 construct: extracellular domain; Antigen in solution in BLI; also called Hu-FRb; not shown: His tag

[4] = biological target: T2, human FOLR3 extracellular domain linked …; experiment: BLI, global 1:1 fit (125 nM row); all responses below quantification
[5] = biological target: T4, human FOLR1 extracellular domain linked to His tag (human, UniProt P15328 25-233, limits assumed); experiment: BLI, Ag 62.5 nM over Ab on anti-hIgG Fc tip
T4 construct: extracellular domain; It may be the same product as m13; also called Hu-FRα; Hu-Ag; not shown: His tag

[6] = biological target: T3, human FOLR2 extracellular domain linked …; experiment: BLI, Ag 62.5 nM over Ab on anti-hIgG Fc tip
[7] = biological target: T5, mouse FOLR1 extracellular domain linked to His tag (mouse, UniProt P35846 25-232, limits assumed); experiment: BLI, global 1:1 fit (15.6 nM row); only the 500 nM response quantifiable
T5 construct: extracellular domain; Antigen in solution in BLI; also called Mouse-Ag; not shown: His tag

[8] = biological target: T4, human FOLR1 extracellular domain linked …; experiment: BLI, Ag 125 nM over Ab on anti-hIgG Fc tip
[9] = biological target: T3, human FOLR2 extracellular domain linked …; experiment: BLI, Ag 125 nM over Ab on anti-hIgG Fc tip
[10] = biological target: T5, mouse FOLR1 extracellular domain linked …; experiment: BLI, global 1:1 fit (125 nM row); only the 500 nM response quantifiable
[11] = biological target: T2, human FOLR3 extracellular domain linked …; experiment: BLI, global 1:1 fit (250 nM row); all responses below quantification
[12] = biological target: T5, mouse FOLR1 extracellular domain linked …; experiment: BLI, global 1:1 fit (7.82 nM row); only the 500 nM response quantifiable
[13] = biological target: T4, human FOLR1 extracellular domain linked …; experiment: BLI, global 1:1 fit (31.3 nM row)
[14] = biological target: T3, human FOLR2 extracellular domain linked …; experiment: BLI, global 1:1 fit (31.3 nM row)
[15] = biological target: T2, human FOLR3 extracellular domain linked …; experiment: BLI, global 1:1 fit (31.3 nM row); all responses below quantification
[16] = biological target: T4, human FOLR1 extracellular domain linked …; experiment: BLI, global 1:1 fit (500 nM row)
[17] = biological target: T3, human FOLR2 extracellular domain linked …; experiment: BLI, global 1:1 fit (500 nM row)
[18] = biological target: T1, rat FOLR1 extracellular domain linked …; experiment: BLI, Ag 15.6 nM; * = below range of quantification
[19] = biological target: T1, rat FOLR1 extracellular domain linked …; experiment: BLI, global 1:1 fit (31.3 nM row); all responses below quantification
[20] = biological target: T4, human FOLR1 extracellular domain linked …; experiment: BLI, global 1:1 fit (15.6 nM row)
[21] = biological target: T3, human FOLR2 extracellular domain linked …; experiment: BLI, global 1:1 fit (15.6 nM row)
[22] = biological target: T4, human FOLR1 extracellular domain linked …; experiment: BLI, global 1:1 fit (250 nM row)
[23] = biological target: T3, human FOLR2 extracellular domain linked …; experiment: BLI, global 1:1 fit (250 nM row)
[24] = biological target: T1, rat FOLR1 extracellular domain linked …; experiment: BLI, global 1:1 fit (7.82 nM row); all responses below quantification

T3 sequence (P14207 17-230 limits assumed): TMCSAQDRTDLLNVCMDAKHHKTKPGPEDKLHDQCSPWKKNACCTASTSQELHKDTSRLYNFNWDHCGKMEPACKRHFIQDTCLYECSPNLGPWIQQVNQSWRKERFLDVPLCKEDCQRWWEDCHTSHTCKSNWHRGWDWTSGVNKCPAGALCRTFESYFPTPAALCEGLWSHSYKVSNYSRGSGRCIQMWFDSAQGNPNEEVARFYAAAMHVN
T4 sequence (P15328 25-233 limits assumed): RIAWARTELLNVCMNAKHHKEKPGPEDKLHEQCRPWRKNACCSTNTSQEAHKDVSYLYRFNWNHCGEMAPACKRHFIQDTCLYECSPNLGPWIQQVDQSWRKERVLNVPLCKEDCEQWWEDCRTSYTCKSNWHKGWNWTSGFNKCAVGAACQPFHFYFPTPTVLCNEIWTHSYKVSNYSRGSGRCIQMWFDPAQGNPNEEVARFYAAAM
T2 sequence (P41439 23-245 limits assumed): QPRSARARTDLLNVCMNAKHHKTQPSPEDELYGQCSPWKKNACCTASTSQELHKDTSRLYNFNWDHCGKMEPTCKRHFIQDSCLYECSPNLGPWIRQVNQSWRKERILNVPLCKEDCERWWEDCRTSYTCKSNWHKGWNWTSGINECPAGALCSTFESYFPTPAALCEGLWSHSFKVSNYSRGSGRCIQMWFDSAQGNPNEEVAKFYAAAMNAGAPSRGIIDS
T5 sequence (P35846 25-232 limits assumed): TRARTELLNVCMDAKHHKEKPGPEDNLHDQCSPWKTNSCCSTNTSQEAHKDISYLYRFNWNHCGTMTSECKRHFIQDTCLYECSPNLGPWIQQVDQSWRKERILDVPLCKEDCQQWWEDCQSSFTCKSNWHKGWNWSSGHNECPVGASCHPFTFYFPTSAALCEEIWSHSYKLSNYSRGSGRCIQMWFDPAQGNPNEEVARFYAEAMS

B1: F131 (antibody, V domains shown)
VH: EVQLLESGGGVVQPGRSLRLSCAASGFTFSSYGMHWVRQAPGKGLEWVAVISYDGSNKYYADSVKGRFTISRANSKNTLYLQMNSLRAEDTAVYYCARPRAYYGAYGSSFDYWGQGTQVTVSS
VL: EIVMTQSPSSVSASVGDRVAITCRASQGISSWLAWYQQKPGKAPKLLIYAASSLQSGVPSRFSGSGSGTDFTLTISSLQPEDFATYYCQQSYSTPLTFGGGTKVDIK
notes: also called clone F131; F131 mAb
Response [1]: -0.00532 | Response [2]: 0.0028 | Response [3]: 0.0068 | koff [4]: 0.217 s⁻¹ | kon [4]: 1660 M⁻¹ s⁻¹ | Response [5]: 0.117 | Response [6]: 0.0356 | Kd [7]: 2960 nM | koff [7]: 0.301 s⁻¹ | kon [7]: 102000 M⁻¹ s⁻¹ | Response [8]: 0.144 | Response [9]: 0.0188 | Kd [10]: 2960 nM | koff [10]: 0.301 s⁻¹ | kon [10]: 102000 M⁻¹ s⁻¹ | koff [11]: 0.217 s⁻¹ | kon [11]: 1660 M⁻¹ s⁻¹ | Kd [12]: 2960 nM | koff [12]: 0.301 s⁻¹ | kon [12]: 102000 M⁻¹ s⁻¹ | Kd [13]: 5.3 nM | koff [13]: 0.0012 s⁻¹ | kon [13]: 226000 M⁻¹ s⁻¹ | Kd [14]: 142 nM | koff [14]: 0.0784 s⁻¹ | kon [14]: 552000 M⁻¹ s⁻¹ | koff [15]: 0.217 s⁻¹ | kon [15]: 1660 M⁻¹ s⁻¹ | koff [16]: 0.0012 s⁻¹ | kon [16]: 226000 M⁻¹ s⁻¹ | Kd [17]: 142 nM | koff [17]: 0.0784 s⁻¹ | kon [17]: 552000 M⁻¹ s⁻¹ | Response [18]: -0.00395 | koff [19]: 1.03 s⁻¹ | kon [19]: 5490 M⁻¹ s⁻¹ | Kd [20]: 5.3 nM | koff [20]: 0.0012 s⁻¹ | kon [20]: 226000 M⁻¹ s⁻¹ | Kd [21]: 142 nM | koff [21]: 0.0784 s⁻¹ | kon [21]: 552000 M⁻¹ s⁻¹ | Kd [22]: 5.3 nM | koff [22]: 0.0012 s⁻¹ | kon [22]: 226000 M⁻¹ s⁻¹ | Kd [23]: 142 nM | koff [23]: 0.0784 s⁻¹ | kon [23]: 552000 M⁻¹ s⁻¹ | koff [24]: 1.03 s⁻¹ | kon [24]: 5490 M⁻¹ s⁻¹

B2: F131-LD038 (antibody, V domains shown)
VH: B1 VH
VL: B1 VL
modifications: drug-linker LD038 (PB038, maleimide-PEG unit-Val-Cit-PAB-exatecan) on cysteines freed by TCEP reduction; positions not given
notes: Antibody-drug conjugate of F131 (IgG1) with LD038; also called anti-huFOLR-1 conjugate F131-LD038; F131-038
Response [1]: -0.00454 | Response [2]: 0.0079 | Response [3]: 0.0076 | koff [4]: 0.233 s⁻¹ | Response [5]: 0.138 | Response [6]: 0.0379 | Kd [7]: 2870 nM | koff [7]: 0.266 s⁻¹ | kon [7]: 92600 M⁻¹ s⁻¹ | Response [8]: 0.176 | Response [9]: 0.0161 | Kd [10]: 2870 nM | koff [10]: 0.266 s⁻¹ | kon [10]: 92600 M⁻¹ s⁻¹ | koff [11]: 0.233 s⁻¹ | Kd [12]: 2870 nM | koff [12]: 0.266 s⁻¹ | kon [12]: 92600 M⁻¹ s⁻¹ | Kd [13]: 4.79 nM | koff [13]: 0.00121 s⁻¹ | kon [13]: 252000 M⁻¹ s⁻¹ | Kd [14]: 84.4 nM | koff [14]: 0.0813 s⁻¹ | kon [14]: 963000 M⁻¹ s⁻¹ | koff [15]: 0.233 s⁻¹ | Kd [16]: 4.79 nM | koff [16]: 0.00121 s⁻¹ | kon [16]: 252000 M⁻¹ s⁻¹ | Kd [17]: 84.4 nM | koff [17]: 0.0813 s⁻¹ | kon [17]: 963000 M⁻¹ s⁻¹ | Response [18]: -0.00212 | koff [19]: 0.224 s⁻¹ | kon [19]: 2.64e+06 M⁻¹ s⁻¹ | Kd [20]: 4.79 nM | koff [20]: 0.00121 s⁻¹ | kon [20]: 252000 M⁻¹ s⁻¹ | Kd [21]: 84.4 nM | koff [21]: 0.0813 s⁻¹ | kon [21]: 963000 M⁻¹ s⁻¹ | Kd [22]: 4.79 nM | koff [22]: 0.00121 s⁻¹ | kon [22]: 252000 M⁻¹ s⁻¹ | Kd [23]: 84.4 nM | koff [23]: 0.0813 s⁻¹ | kon [23]: 963000 M⁻¹ s⁻¹ | koff [24]: 0.224 s⁻¹ | kon [24]: 2.64e+06 M⁻¹ s⁻¹
